Test results from US20150111251A1 (AbbVie / Abbott, published 2015).

B1: AB384 (antibody, V domains shown)
VH: EIQLVQSGAEVKKPGASVKVSCKASGYTFTNYGMNWVRQAPGQGLEWMGWINTYTGEPTYADDFKGRVTFTTDTSTSTAYMELSSLRSEDTAVYYCARKFLTTVVVTDYAMDYWGQGTTVTVSS
VL: DVVMTQSPAFLSVTPGEKVTITCRASQDISNYLNWYQQKPDQAPKLLIKYTSRLQSGVPSRFSGSGSGTDFTFTISSLEAEDAATYYCQQGNTLPPTFGQGTKLEIK
notes: Full-length humanized antibody made in HEK 293-6E; also called hMAK199VH.2b/hMAK199VL.2
B2: AB378 (antibody, V domains shown)
VH: EIQLVQSGAEVKKPGASVKVSCKASGYTFTNYGMNWVRQAPGQGLEWMGWINTYTGEPTYADDFKGRFTFTLDTSTSTAYMELSSLRSEDTAVYFCARKFLTTVVVTDYAMDYWGQGTTVTVSS
VL: DVVMTQSPAFLSVTPGEKVTITCRASQDISNYLNWYQQKPDQAPKLLIKYTSRLQSGVPSRFSGSGSGTDFTFTISSLEAEDAATYYCQQGNTLPPTFGQGTKLEIK
notes: Full-length humanized antibody made in HEK 293-6E; also called hMAK199VH.2a/hMAK199VL.2
B3: AB372 (antibody, V domains shown)
VH: EVQLVQSGAEVKKPGASVKVSCKASGYTFTNYGMNWVRQAPGQGLEWMGWINTYTGEPTYADDFKGRVTMTTDTSTSTAYMELSSLRSEDTAVYYCARKFLTTVVVTDYAMDYWGQGTTVTVSS
VL: DVVMTQSPAFLSVTPGEKVTITCRASQDISNYLNWYQQKPDQAPKLLIKYTSRLQSGVPSRFSGSGSGTDFTFTISSLEAEDAATYYCQQGNTLPPTFGQGTKLEIK
notes: Full-length humanized antibody made in HEK 293-6E; also called hMAK199VH.2/hMAK199VL.2
B4: AB353 (antibody, V domains shown)
VH: EVQLVQSGSELKKPGASVKVSCKASGYTFTNYGMNWVRQAPGQGLEWMGWINTYTGEPTYADDFKGRFVFSLDTSVSTAYLQISSLKAEDTAVYYCARKFLTTVVVTDYAMDYWGQGTTVTVSS
VL: DIQMTQSPSSLSASVGDRVTITCRASQDISNYLNWYQQKPGKAPKLLIYYTSRLQSGVPSRFSGSGSGTDYTLTISSLQPEDFATYYCQQGNTLPPTFGQGTKLEIK
notes: Full-length humanized antibody made in HEK 293-6E; also called hMAK199VH.1/hMAK199VL.1b
B5: AB366 (antibody, V domains shown)
VH: EVQLVQSGSELKKPGASVKVSCKASGYTFTNYGMNWVRQAPGQGLEWMGWINTYTGEPTYADDFKGRFVFSLDTSVSTAYLQISSLKAEDTAVYFCARKFLTTVVVTDYAMDYWGQGTTVTVSS
VL: DVVMTQSPAFLSVTPGEKVTITCRASQDISNYLNWYQQKPDQAPKLLIKYTSRLQSGVPSRFSGSGSGTDFTFTISSLEAEDAATYYCQQGNTLPPTFGQGTKLEIK
notes: Full-length humanized antibody made in HEK 293-6E; also called hMAK199VH.1b/hMAK199VL.2
B6: AB354 (antibody, V domains shown)
VH: EVQLVQSGSELKKPGASVKVSCKASGYTFTNYGMNWVRQAPGQGLEWMGWINTYTGEPTYADDFKGRFVFSLDTSVSTAYLQISSLKAEDTAVYYCARKFLTTVVVTDYAMDYWGQGTTVTVSS
VL: DVVMTQSPAFLSVTPGEKVTITCRASQDISNYLNWYQQKPDQAPKLLIKYTSRLQSGVPSRFSGSGSGTDFTFTISSLEAEDAATYYCQQGNTLPPTFGQGTKLEIK
notes: Full-length humanized antibody made in HEK 293-6E; also called hMAK199VH.1/hMAK199VL.2
B7: AB360 (antibody, V domains shown)
VH: EIQLVQSGSELKKPGASVKVSCKASGYTFTNYGMNWVRQAPGQGLEWMGWINTYTGEPTYADDFKGRFVFSLDTSVSTAYLQISSLKAEDTAVYFCARKFLTTVVVTDYAMDYWGQGTTVTVSS
VL: DVVMTQSPAFLSVTPGEKVTITCRASQDISNYLNWYQQKPDQAPKLLIKYTSRLQSGVPSRFSGSGSGTDFTFTISSLEAEDAATYYCQQGNTLPPTFGQGTKLEIK
notes: Full-length humanized antibody made in HEK 293-6E; also called hMAK199VH.1a/hMAK199VL.2

How the values were obtained:
[1] = target: T1, Recombinant Human TNF-α/TNFSF1A (human, UniProt P01375 77-233); experiment: SPR (BIACORE), antibody captured, TNFα in solution
T1 construct: also called hTNF-α; huTNFα
Procedure: The BIACORE assay (Biacore, Inc, Piscataway, N.J.) determines the affinity of antibodies with kinetic measurements of on-rate and off-rate constants. Binding of antibodies to a target antigen (for example, a purified recombinant target antigen) is determined by surface plasmon resonance-based measurements with a Biacore® 1000 or 3000 instrument (Biacore® AB, Uppsala, Sweden) using running HBS-EP (10 mM HEPES [pH 7.4], 150 mM NaCl, 3 mM EDTA, and 0.005% surfactant P20) at 25° C. All chemicals are obtained from Biacore® AB (Uppsala, Sweden) or otherwise from a different source as described. For example, approximately 5000 RU of goat anti-mouse IgG, (Fcγ), fragment specific polyclonal antibody (Pierce Biotechnology Inc, Rockford, Ill.) diluted in 10 mM sodium acetate (pH 4.5) is directly immobilized across a CM5 research grade biosensor chip using a standard amine coupling kit according to manufacturer's instructions and procedures at 25 μg/ml. Unreacted moieties on the biosensor surface are blocked with ethanolamine. Modified carboxymethyl dextran surface in flowcell 2 and 4 is used as a reaction surface. Unmodified carboxymethyl dextran without goat anti-mouse IgG in flow cell 1 and 3 is used as the reference surface. For kinetic analysis, rate equations derived from the 1:1 Langmuir binding model are fitted simultaneously to association and dissociation phases of all eight injections (using global fit analysis) with the use of Biaevaluation 4.0.1 software. Purified antibodies are diluted in HEPES-buffered saline for capture across goat anti-mouse IgG specific reaction surfaces. Antibodies to be captured as a ligand (25 μg/ml) are injected over reaction matrices at a flow rate of 5 μl/minute. The association and dissociation rate constants, kₒₙ (M⁻¹ s⁻¹) and koff (s⁻¹), are determined under a continuous flow rate of 25 μl/minute. Rate constants are derived by making kinetic binding measurements at different antigen concentrations ranging from 10-200 nM. The equilibrium dissociation constant (M) of the reaction between antibodies and the target antigen is then calculated from the kinetic rate constants by the following formula: KD=koff/kₒₙ. Binding is recorded as a function of time and kinetic rate constants are calculated. In this assay, on-rates as fast as 10⁶ M⁻¹ s⁻¹ and off-rates as slow as 10⁻⁶ s⁻¹ can be measured.

[2] = target: T1, Recombinant Human TNF-α/TNFSF1A; experiment: cell-based or functional assay

T1 sequence (P01375 77-233 limits assumed): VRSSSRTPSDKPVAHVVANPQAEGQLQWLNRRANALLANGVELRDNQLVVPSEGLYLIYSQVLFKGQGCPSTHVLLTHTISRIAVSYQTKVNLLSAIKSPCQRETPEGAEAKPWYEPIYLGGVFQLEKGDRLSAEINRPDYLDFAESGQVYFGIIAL

Binder | Kd [1] | koff [1] | kon [1] | TNFα Neutralization Assay IC50 nM (L929 cells) [2]
B1 | 2.1 nM | 0.0014 s⁻¹ | 660000 M⁻¹ s⁻¹ | –
B2 | 1.4 nM | 0.0013 s⁻¹ | 880000 M⁻¹ s⁻¹ | –
B3 | 1.2 nM | 0.0011 s⁻¹ | 950000 M⁻¹ s⁻¹ | –
B4 | 0.46 nM | 0.00092 s⁻¹ | 2e+06 M⁻¹ s⁻¹ | 0.66 nM
B5 | 0.93 nM | 0.0015 s⁻¹ | 1.6e+06 M⁻¹ s⁻¹ | –
B6 | 0.52 nM | 0.001 s⁻¹ | 2e+06 M⁻¹ s⁻¹ | –
B7 | 0.78 nM | 0.00097 s⁻¹ | 1.2e+06 M⁻¹ s⁻¹ | –
